Source: patent US20260085338

Biological target: T7 RNA polymerase, P00573
Sequence (P00573 whole entry): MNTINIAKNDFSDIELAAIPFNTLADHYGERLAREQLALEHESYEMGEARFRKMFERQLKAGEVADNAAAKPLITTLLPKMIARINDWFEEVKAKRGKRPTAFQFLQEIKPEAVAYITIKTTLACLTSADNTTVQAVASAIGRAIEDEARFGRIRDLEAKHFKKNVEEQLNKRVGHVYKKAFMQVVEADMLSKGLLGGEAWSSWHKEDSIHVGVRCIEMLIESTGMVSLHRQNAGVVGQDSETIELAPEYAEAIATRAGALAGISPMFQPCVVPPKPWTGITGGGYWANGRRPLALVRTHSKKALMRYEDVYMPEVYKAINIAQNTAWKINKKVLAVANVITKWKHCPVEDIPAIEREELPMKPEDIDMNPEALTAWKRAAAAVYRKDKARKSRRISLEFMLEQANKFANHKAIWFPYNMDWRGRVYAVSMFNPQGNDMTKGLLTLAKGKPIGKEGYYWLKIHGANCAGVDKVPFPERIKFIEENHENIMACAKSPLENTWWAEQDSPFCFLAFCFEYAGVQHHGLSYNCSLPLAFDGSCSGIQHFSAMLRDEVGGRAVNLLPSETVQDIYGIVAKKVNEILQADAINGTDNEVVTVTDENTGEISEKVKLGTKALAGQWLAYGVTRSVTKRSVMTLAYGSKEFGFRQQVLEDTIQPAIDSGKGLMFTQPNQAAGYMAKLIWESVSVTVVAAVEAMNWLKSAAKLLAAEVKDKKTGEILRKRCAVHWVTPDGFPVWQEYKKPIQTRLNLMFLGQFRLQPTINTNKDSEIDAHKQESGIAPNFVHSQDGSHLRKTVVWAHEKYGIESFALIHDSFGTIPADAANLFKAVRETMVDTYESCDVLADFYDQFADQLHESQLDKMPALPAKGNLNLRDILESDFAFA

B1: T7 lysozyme (protein)
chain: MARVQFKQRESTDAIFVHCSATKPSQNVGVREIRQWHKEQGWLDVGYHFIIKRDGTVEAGRDEMAVGSHAKGYNHNSIGVCLVGGIDDKGKFDANFTPAQMQSLRSLLVTLLAKYEGAVLRAHHEVAPKACPSFDLKRWWEKNELVTSDRG
reduction of msfGFP output upon lysozyme induction (P. putida, 4 mM Rha): T7 (-79%)
